The source of these data is US20240263161A1 (UNIVERSITY OF COPENHAGEN, published 2024).

Assay [1] addresses membrane bound MUC1 TR reporter on HEK293 WT cells (core2 O-glycans) (human) (UniProt P15941). The assay can be described thus: cell-based or functional assay.
Assay [2] has as its target secreted purified MUC1 TR reporter, WT glycoform (core2 sialylated O-glycans, HEK293 WT) (human) (UniProt P15941). In words: cell-based or functional assay.
Assay [3] has as its target T1, secreted purified MUC5AC TR reporter, WT glycoform (core2 sialylated O-glycans, HEK293 WT) (human, UniProt P98088 2708-2850).
T1 sequence: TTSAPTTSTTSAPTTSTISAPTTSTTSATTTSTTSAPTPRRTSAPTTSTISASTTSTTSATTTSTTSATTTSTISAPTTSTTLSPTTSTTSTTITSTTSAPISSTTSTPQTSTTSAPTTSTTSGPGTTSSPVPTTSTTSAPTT
The assay can be described thus: microscale thermophoresis (MST), […].

Assay [4] concerns the target T2, secreted purified MUC5AC TR reporter, Tn glycoform (human, UniProt P98088 2708-2850).
T2 sequence: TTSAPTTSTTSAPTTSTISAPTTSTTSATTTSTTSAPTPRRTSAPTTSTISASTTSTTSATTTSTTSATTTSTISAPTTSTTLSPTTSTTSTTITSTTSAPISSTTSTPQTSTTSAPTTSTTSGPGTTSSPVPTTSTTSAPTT
In words: microscale thermophoresis (MST), […]. On the technique in general: Microscale thermophoresis detects binding through changes in fluorescence in a small temperature gradient.

The target in assay [5] is secreted purified MUC1 TR reporter, WT glycoform (core2 sialylated O-glycans, HEK293 WT) (human, UniProt P15941 121-260). The assay can be described thus: microscale thermophoresis (MST), […].
Assay [6] deals with secreted purified MUC21 TR reporter, Tn glycoform (human, UniProt Q5SSG8 130-278). The assay can be described thus: ELISA with purified secreted reporters. A general note: ELISA stands for enzyme-linked immunosorbent assay.
Chain of secreted purified MUC21 TR reporter, Tn glycoform (Q5SSG8 130-278): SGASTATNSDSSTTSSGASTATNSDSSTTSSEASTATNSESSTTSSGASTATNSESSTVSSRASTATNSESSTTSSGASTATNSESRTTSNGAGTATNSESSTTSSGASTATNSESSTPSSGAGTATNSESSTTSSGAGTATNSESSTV

Chain of secreted purified MUC1 TR reporter, WT glycoform (core2 sialylated O-glycans, HEK293 WT) (P15941 121-260): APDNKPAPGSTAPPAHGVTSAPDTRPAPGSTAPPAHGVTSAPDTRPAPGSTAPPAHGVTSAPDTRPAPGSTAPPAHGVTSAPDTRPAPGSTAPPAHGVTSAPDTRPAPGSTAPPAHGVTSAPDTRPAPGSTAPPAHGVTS
Chain of secreted purified MUC1 TR reporter, WT glycoform (core2 sialylated O-glycans, HEK293 WT) (human) (P15941 121-260): as above
Chain of membrane bound MUC1 TR reporter on HEK293 WT cells (core2 O-glycans) (human) (P15941 121-260 limits assumed): as the sequence (P15941 121-260) above

“StcE (Secreted protease of C1 esterase inhibitor) wildtype, recombinant (from UniProt O82882 36-898) (enzyme)”: in assay [1], the cleavage, dose titration on cells (flow cytometry) is over 10 µg/mL. The cleavage, dose titration with the isolated reporter (SDS-PAGE) in assay [2] is over 10 µg/mL.

B1: AlexaFluoro647 labelled MBP-X409 (other)
chain: EGCIVSVNSGKRYCLPVGQRSGYSLPDWIVGQEVYVDSGAKAKVLLSDWDNLSYNRIGEFVGNVNPADMKKVKAWNGQYLDFSKPRSMRVVYK
One may read the Kd as the equilibrium constant for the complex coming apart. A higher Kd goes with weaker binding. For the molecule B1, the results for the dissociation constant (Kd) in assay [3], in assay [4] and in assay [5] were 14 nM, 37 nM and 2600 nM, respectively. The “fold lower binding affinity (against MUC5Ac)” value in assay [5] is over 1000 fold.

B2: X409 module of Escherichia coli O157:H7 StcE (tags of the construct not stated) (other)
chain: EGCIVSVNSGKRYCLPVGQRSGYSLPDWIVGQEVYVDSGAKAKVLLSDWDNLSYNRIGEFVGNVNPADMKKVKAWNGQYLDFSKPRSMRVVYK
Turning to B2, in assay [6], the binding result is “binds”.
